In article PMC3699067:

Target: T1, DJ-1 (human (endogenous in HEK293T)), Q99497
T1 chain: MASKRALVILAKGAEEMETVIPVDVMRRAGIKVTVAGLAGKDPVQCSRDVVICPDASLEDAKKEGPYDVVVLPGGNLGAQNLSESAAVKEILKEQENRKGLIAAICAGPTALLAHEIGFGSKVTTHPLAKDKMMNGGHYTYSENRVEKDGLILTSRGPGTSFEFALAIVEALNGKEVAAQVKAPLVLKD
Assay: cross-linking
Conditions: remark: other sources report otherwise

B1: DJ-1, Q99497 1-189 (natural protein)
chain: MASKRALVILAKGAEEMETVIPVDVMRRAGIKVTVAGLAGKDPVQCSRDVVICPDASLEDAKKEGPYDVVVLPGGNLGAQNLSESAAVKEILKEQENRKGLIAAICAGPTALLAHEIGFGSKVTTHPLAKDKMMNGGHYTYSENRVEKDGLILTSRGPGTSFEFALAIVEALNGKEVAAQVKAPLVLKD
stoichiometry N: 2
